Source: patent US20110059889A1 (SYNTONIX PHARMACEUTICALS, published 2011)
Where two headings read alike, the source gives them in different places. Bridge positions count the residues as written; N and C are the ends. Square brackets hold non-standard residues; d marks the D form. Ends that are not written are not given here. Phe(F5) = N[C@@H](Cc1c(F)c(F)c(F)c(F)c1F)C(=O)O; Phe(4-NH2) = Nc1ccc(C[C@H](N)C(=O)O)cc1; Phe(3-Me) = Cc1cccc(C[C@H](N)C(=O)O)c1; Phe(4-Me) = Cc1ccc(C[C@H](N)C(=O)O)cc1; NMeL = CN[C@@H](CC(C)C)C(=O)O; Pen = CC(C)(S)[C@H](N)C(=O)O; hCys = N[C@@H](CCS)C(=O)O; Sar = CNCC(=O)O

Tests used:
[1] = target: T1, soluble human FcRn (shFcRn) (human, UniProt P55899 24-297; P61769 21-119); assay: SPR pH 6
T1 construct: Biotinylated for the ELISA, amine-coupled to a CM5 chip for SPR; also called biotinylated shFcRn
Procedure: (§1) The following steps were performed to cross-link soluble human or cynomolgus FcRn to the dextran surface of a CM5 sensor chip (Biacore AB, Uppsala, Sweden) by an amine coupling reaction involving 1-ethyl-(3-dimethylaminopropyl)-carbodiimide hydrochloride (EDC) (Biacore AB, Uppsala, Sweden) and N-hydroxysuccinimide (NHS) (Biacore AB, Uppsala, Sweden) as recommended by Biacore (BIAapplications Handbook, version AB, section 4.2, Biacore AB, Uppsala, Sweden). […] Residual sites on the FcRn flow cell were blocked with 1 M ethanolamine hydrochloride pH 8.5 (Biacore AB, Uppsala, Sweden). A control flow cell was blocked with ethanolamine for reference subtraction. For analysis of the monomeric peptides, FcRn was coated to a final density of 4000-5000 response units (RU). For analysis of the peptide dimers, FcRn was coated to a density of 2000-2500 RU. All SPR measurements were performed using a BIACORE 3000 Instrument (Biacore AB Uppsala, Sweden). For measurements done at either pH 6 or pH 7.4, experiments were performed in 50 mM phosphate, 100 mM sodium chloride, 0.01% surfactant P20 (Biacore AB, Uppsala, Sweden).
(§2) Ten, 2-fold dilutions of the peptide were injected over the FcRn-CM5 chip at a rate of 20 μl/min for 2 min. The peptide was dissociated from the chip for 2.5 minutes with buffer. Any remaining peptide was removed from the chip with a 30 second injection of HBS-P buffer (Biacore AB, Uppsala, Sweden) at a rate of 30 μl/min. Sensorgrams were generated and analyzed using BiaEval software version 3.1 (Biacore AB, Uppsala, Sweden). The equilibrium RU observed for each injection was plotted against concentration. The equilibrium KD values were derived by analysis of the plots using the steady state affinity model included in the BiaEval software.

[2] = target: T1, soluble human FcRn (shFcRn); assay: IgG competition ELISA
Procedure: (§3) The wells were coated with 100 μl/well of 1 μg/ml biotinylated-shFcRn in Buffer A. The plate was sealed and incubated at 37° C. for 2 hours. Afterwards, the plate was washed with 200 μl/well of Buffer B (Buffer B: 100 mM MES pH 6, 150 mM NaCl, 0.5% BSA IgG-free (Jackson ImmunoResearch, West Grove, Pa.), 0.05% Tween-20). […] To allow for mixing, the plate was rocked for 2 minutes, sealed and incubated at 37° C. for 2 hours. […] The plate was covered, incubated for 30 minutes at room temperature and washed 4 times with 200 μl/well of ice-cold buffer B. SureBlue TMB substrate solution (100 μl/well, KPL, Gaithersburg, Md.) was added and the plate was allowed to incubate at room temperature until color developed, which took 5 to 10 minutes. Once color developed, 100 μl/well of TMB stop solution (KPL, Gaithersburg, Md.) was added and the absorbance was measured at 450 nm. The data was plotted as absorbance vs. peptide concentration to derive the inhibitory concentration 50% (IC₅₀) values.

[3] = target: T1, soluble human FcRn (shFcRn); assay: SPR pH 6; remark: listed apart in the source
Procedure: as §1, §2

[4] = target: T1, soluble human FcRn (shFcRn); assay: IgG competition ELISA; remark: listed apart in the source
Procedure: as §3

[5] = target: T1, soluble human FcRn (shFcRn); assay: SPR pH 7.4
Procedure: as §1, §2

[6] = target: T1, soluble human FcRn (shFcRn); assay: IgG competition ELISA; remark: listed apart in the source
Procedure: as §3

[7] = target: T1, soluble human FcRn (shFcRn); assay: SPR pH 6; remark: listed apart in the source
Procedure: as §1, §2

[8] = target: T1, soluble human FcRn (shFcRn); assay: SPR pH 6; remark: listed apart in the source
Procedure: as §1, §2

Binder	Kd [1] [µM]	Kd [3] [nM]	Kd [5] [µM]	also measured
QRFCTGHXGGLYPCNGP (Pen 4; 2-napthylalanine 8; disulfide 4-14; C-terminal amide) [Peptide No. 62]	11	–	–	IC50 [2]: 90 µM
QRF[Pen]TGHFG[dR]LYPCNGP-NH2 (disulfide 4-14; N-terminus assumed; SMILES CC(C)C[C@@H]1NC(=O)[C@@H](CCCNC(=N)N)NC(=O)CNC(=O)[C@H](Cc2ccccc2)NC(=O)[C@H](Cc2c[nH]cn2)NC(=O)CNC(=O)[C@H]([C@@H](C)O)NC(=O)[C@@H](NC(=O)[C@H](Cc2ccccc2)NC(=O)[C@H](CCCNC(=N)N)NC(=O)[C@@H](N)CCC(N)=O)C(C)(C)SSC[C@@H](C(=O)N[C@@H](CC(N)=O)C(=O)NCC(=O)N2CCC[C@H]2C(N)=O)NC(=O)[C@@H]2CCCN2C(=O)[C@H](Cc2ccc(O)cc2)NC1=O) [Peptide No. 41]	–	830	8.8	IC50 [4]: 8.1 µM
QRF[Pen]TGHFG[dP]LYP[Pen]NGP-NH2 (disulfide 4-14; N-terminus assumed; SMILES CC(C)C[C@@H]1NC(=O)[C@H]2CCCN2C(=O)CNC(=O)[C@H](Cc2ccccc2)NC(=O)[C@H](Cc2c[nH]cn2)NC(=O)CNC(=O)[C@H]([C@@H](C)O)NC(=O)[C@@H](NC(=O)[C@H](Cc2ccccc2)NC(=O)[C@H](CCCNC(=N)N)NC(=O)[C@@H](N)CCC(N)=O)C(C)(C)SSC(C)(C)[C@@H](C(=O)N[C@@H](CC(N)=O)C(=O)NCC(=O)N2CCC[C@H]2C(N)=O)NC(=O)[C@@H]2CCCN2C(=O)[C@H](Cc2ccc(O)cc2)NC1=O) [Peptide No. 295]	–	–	–	IC50 [6]: 1.6 µM; Kd [7]: 280 nM
QRF[Pen]TGHFG[dH]LYPCNGP-NH2 (disulfide 4-14; N-terminus assumed; SMILES CC(C)C[C@@H]1NC(=O)[C@@H](Cc2c[nH]cn2)NC(=O)CNC(=O)[C@H](Cc2ccccc2)NC(=O)[C@H](Cc2c[nH]cn2)NC(=O)CNC(=O)[C@H]([C@@H](C)O)NC(=O)[C@@H](NC(=O)[C@H](Cc2ccccc2)NC(=O)[C@H](CCCNC(=N)N)NC(=O)[C@@H](N)CCC(N)=O)C(C)(C)SSC[C@@H](C(=O)N[C@@H](CC(N)=O)C(=O)NCC(=O)N2CCC[C@H]2C(N)=O)NC(=O)[C@@H]2CCCN2C(=O)[C@H](Cc2ccc(O)cc2)NC1=O) [Peptide No. 42]	–	2000	20	–
QRF[Pen]TGHFG[dF]LYPCNGP-NH2 (disulfide 4-14; N-terminus assumed; SMILES CC(C)C[C@@H]1NC(=O)[C@@H](Cc2ccccc2)NC(=O)CNC(=O)[C@H](Cc2ccccc2)NC(=O)[C@H](Cc2c[nH]cn2)NC(=O)CNC(=O)[C@H]([C@@H](C)O)NC(=O)[C@@H](NC(=O)[C@H](Cc2ccccc2)NC(=O)[C@H](CCCNC(=N)N)NC(=O)[C@@H](N)CCC(N)=O)C(C)(C)SSC[C@@H](C(=O)N[C@@H](CC(N)=O)C(=O)NCC(=O)N2CCC[C@H]2C(N)=O)NC(=O)[C@@H]2CCCN2C(=O)[C@H](Cc2ccc(O)cc2)NC1=O) [Peptide No. 44]	–	1700	100	–
RF[Pen]TGHF[dF][Sar][NMeL]YPC-NH2 (disulfide 3-13; N-terminus assumed; SMILES CC(C)C[C@H]1C(=O)N[C@@H](Cc2ccc(O)cc2)C(=O)N2CCC[C@H]2C(=O)N[C@H](C(N)=O)CSSC(C)(C)[C@H](NC(=O)[C@H](Cc2ccccc2)NC(=O)[C@@H](N)CCCNC(=N)N)C(=O)N[C@@H]([C@@H](C)O)C(=O)NCC(=O)N[C@@H](Cc2c[nH]cn2)C(=O)N[C@@H](Cc2ccccc2)C(=O)N[C@H](Cc2ccccc2)C(=O)N(C)CC(=O)N1C) [Peptide No. 217]	–	–	–	Kd [8]: 1400 nM
QRF[hCys]TGHFGGLYP[Pen]NGP-NH2 (disulfide 4-14; N-terminus assumed; SMILES CC(C)C[C@@H]1NC(=O)CNC(=O)CNC(=O)[C@H](Cc2ccccc2)NC(=O)[C@H](Cc2c[nH]cn2)NC(=O)CNC(=O)[C@H]([C@@H](C)O)NC(=O)[C@@H](NC(=O)[C@H](Cc2ccccc2)NC(=O)[C@H](CCCNC(=N)N)NC(=O)[C@@H](N)CCC(N)=O)CCSSC(C)(C)[C@@H](C(=O)N[C@@H](CC(N)=O)C(=O)NCC(=O)N2CCC[C@H]2C(N)=O)NC(=O)[C@@H]2CCCN2C(=O)[C@H](Cc2ccc(O)cc2)NC1=O) [Peptide No. 70]	–	–	–	Kd [7]: 2100 nM
QRF[Pen]TGH[Phe(F5)]GGLYPCNGP-NH2 (disulfide 4-14; N-terminus assumed; SMILES CC(C)C[C@@H]1NC(=O)CNC(=O)CNC(=O)[C@H](Cc2c(F)c(F)c(F)c(F)c2F)NC(=O)[C@H](Cc2c[nH]cn2)NC(=O)CNC(=O)[C@H]([C@@H](C)O)NC(=O)[C@@H](NC(=O)[C@H](Cc2ccccc2)NC(=O)[C@H](CCCNC(=N)N)NC(=O)[C@@H](N)CCC(N)=O)C(C)(C)SSC[C@@H](C(=O)N[C@@H](CC(N)=O)C(=O)NCC(=O)N2CCC[C@H]2C(N)=O)NC(=O)[C@@H]2CCCN2C(=O)[C@H](Cc2ccc(O)cc2)NC1=O) [Peptide No. 57]	70	–	–	–
QRFCTGHFGGLYP[hCys]NGP-NH2 (disulfide 4-14; N-terminus assumed; SMILES CC(C)C[C@@H]1NC(=O)CNC(=O)CNC(=O)[C@H](Cc2ccccc2)NC(=O)[C@H](Cc2c[nH]cn2)NC(=O)CNC(=O)[C@H]([C@@H](C)O)NC(=O)[C@@H](NC(=O)[C@H](Cc2ccccc2)NC(=O)[C@H](CCCNC(=N)N)NC(=O)[C@@H](N)CCC(N)=O)CSSCC[C@@H](C(=O)N[C@@H](CC(N)=O)C(=O)NCC(=O)N2CCC[C@H]2C(N)=O)NC(=O)[C@@H]2CCCN2C(=O)[C@H](Cc2ccc(O)cc2)NC1=O) [Peptide No. 27]	–	–	–	IC50 [6]: 21 µM; Kd [7]: 3900 nM
QRF[Pen]TGH[Phe(4-Me)]GGLYPCNGP-NH2 (disulfide 4-14; N-terminus assumed; SMILES Cc1ccc(C[C@@H]2NC(=O)[C@H](Cc3c[nH]cn3)NC(=O)CNC(=O)[C@H]([C@@H](C)O)NC(=O)[C@@H](NC(=O)[C@H](Cc3ccccc3)NC(=O)[C@H](CCCNC(=N)N)NC(=O)[C@@H](N)CCC(N)=O)C(C)(C)SSC[C@@H](C(=O)N[C@@H](CC(N)=O)C(=O)NCC(=O)N3CCC[C@H]3C(N)=O)NC(=O)[C@@H]3CCCN3C(=O)[C@H](Cc3ccc(O)cc3)NC(=O)[C@H](CC(C)C)NC(=O)CNC(=O)CNC2=O)cc1) [Peptide No. 90]	0.2	–	–	–

The next lines start with results.

Kd [1] [µM]	Kd [3] [nM]	Kd [5] [µM]	Binder	also measured
–	580	4.9	QRF[Pen]TGHF[dD]GLYPCNGP-NH2 (disulfide 4-14; N-terminus assumed; SMILES CC(C)C[C@@H]1NC(=O)CNC(=O)[C@@H](CC(=O)O)NC(=O)[C@H](Cc2ccccc2)NC(=O)[C@H](Cc2c[nH]cn2)NC(=O)CNC(=O)[C@H]([C@@H](C)O)NC(=O)[C@@H](NC(=O)[C@H](Cc2ccccc2)NC(=O)[C@H](CCCNC(=N)N)NC(=O)[C@@H](N)CCC(N)=O)C(C)(C)SSC[C@@H](C(=O)N[C@@H](CC(N)=O)C(=O)NCC(=O)N2CCC[C@H]2C(N)=O)NC(=O)[C@@H]2CCCN2C(=O)[C@H](Cc2ccc(O)cc2)NC1=O) [Peptide No. 47]	–
0.67	–	–	QRF[Pen]TGH[Phe(3-Me)]GGLYPCNGP-NH2 (disulfide 4-14; N-terminus assumed; SMILES Cc1cccc(C[C@@H]2NC(=O)[C@H](Cc3c[nH]cn3)NC(=O)CNC(=O)[C@H]([C@@H](C)O)NC(=O)[C@@H](NC(=O)[C@H](Cc3ccccc3)NC(=O)[C@H](CCCNC(=N)N)NC(=O)[C@@H](N)CCC(N)=O)C(C)(C)SSC[C@@H](C(=O)N[C@@H](CC(N)=O)C(=O)NCC(=O)N3CCC[C@H]3C(N)=O)NC(=O)[C@@H]3CCCN3C(=O)[C@H](Cc3ccc(O)cc3)NC(=O)[C@H](CC(C)C)NC(=O)CNC(=O)CNC2=O)c1) [Peptide No. 89]	IC50 [2]: 4.1 µM
1	–	–	QRF[Pen]TGH[Phe(4-NH2)]GGLYPCNGP-NH2 (disulfide 4-14; N-terminus assumed; SMILES CC(C)C[C@@H]1NC(=O)CNC(=O)CNC(=O)[C@H](Cc2ccc(N)cc2)NC(=O)[C@H](Cc2c[nH]cn2)NC(=O)CNC(=O)[C@H]([C@@H](C)O)NC(=O)[C@@H](NC(=O)[C@H](Cc2ccccc2)NC(=O)[C@H](CCCNC(=N)N)NC(=O)[C@@H](N)CCC(N)=O)C(C)(C)SSC[C@@H](C(=O)N[C@@H](CC(N)=O)C(=O)NCC(=O)N2CCC[C@H]2C(N)=O)NC(=O)[C@@H]2CCCN2C(=O)[C@H](Cc2ccc(O)cc2)NC1=O) [Peptide No. 55]	–
19	–	–	QRFCTGHXGGLYPCNGP (Pen 4; 3-PyridylAla 8; disulfide 4-14; C-terminal amide) [Peptide No. 59]	IC50 [2]: 60 µM
–	480	5.3	QRFCTGHFGXLYPCNGP (Pen 4; Aib (aminoisobutyric acid) 10; disulfide 4-14; C-terminal amide) [Peptide No. 46]	IC50 [4]: 2.4 µM
